Laboratory results taken from US20030060613, “Novel use of calreticulin in modulating hormone responsiveness and new pharmaceuticals for treating cancer, osteoporosis and chronic inflammatory disease” (published 2003).

B1: ARE, rat probasin promoter -115 to -140 (dsDNA)
DNA 1: GTAAAGTACTCCAAGAACCTATTTGT
DNA 2: ACAAATAGGTTCTTGGAGTACTTTAC

What was measured:
[1] = tested on: RAR/RXR endogenous retinoic acid receptors (Mus musculus); test: cell_activity; settings: P19 cells, 10^-7 M retinoic acid; 0.49 without retinoic acid; 61.95 with 100 uM KLGFFKR
[2] = target: Androgen receptor DNA-binding domain (Rattus norvegicus, UniProt P15207 P15207:541-614); test: EMSA; settings: tags: GST fusion (pGEX-3X); label: 32P
Chain of Androgen receptor DNA-binding domain (P15207 541-614, one chain of several): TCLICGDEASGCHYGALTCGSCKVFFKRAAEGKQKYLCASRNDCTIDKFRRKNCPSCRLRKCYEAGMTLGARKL
Protocol: As described in Rennie et al., 1993, DNA binding domain of recombinant rat androgen receptor was prepared as a GST-fusion protein using the pGEX-3X vector and purified by glutathione-agarose affinity chromatography. p60 (calreticulin) was purified by affinity chromatography on KLGFFKR-sepharose, followed by gel electrophoresis as described in detail in Rojiani et al., 1991. […] Recombinant calreticulin (GST-fusion protein) was prepared as described by Baksh and Michalak, 1991. Gel retardation assays were carried out as described by Rennie et al., 1993. To analyze the effect of p60, or recombinant calreticulin, on receptor-DNA binding activity, the AR was pre-incubated with p60 for 30 min at 4° C. To analyze the effects of synthetic peptides, anti-calreticulin antibody, and non-immune IgG on p60 inhibition of AR-ARE binding, the peptide, antibody or IgG were pre-incubated with p60 for 30 min at 4° C. The androgen receptor preparation was then added to these mixtures and further incubated for 30 min at 4° C.
Affinity purified DNA binding domain of the recombinant rat androgen receptor (AR) was pre-incubated with or without the indicated concentrations of purified p60 at 4° C. for 30 min. After this pre-incubation the reaction mixtures were incubated with ³²P-labeled 26 base pair ARE (Rennie et al., 1993) (androgen response element), and analyzed by gel retardation assay. […]

Molecule | activity (corrected luc/bgal) [1] | binding result [2]
bRARE (RAR-beta upstream 32 bp RARE, luciferase reporter) | 25.7 | 
B1 |  | binds
